In US20240141039A1 (AGENUS, published 2024):

T1: full-length isoform 2 ECD of human CD96 with a C89S mutation (His-tagged) (human, UniProt P40200 22-519)
T1 construct: also called His-tagged isoform 2 of human CD96 with a C89S mutation; human CD96 extracellular domain isoform 2 C89S
T1 sequence: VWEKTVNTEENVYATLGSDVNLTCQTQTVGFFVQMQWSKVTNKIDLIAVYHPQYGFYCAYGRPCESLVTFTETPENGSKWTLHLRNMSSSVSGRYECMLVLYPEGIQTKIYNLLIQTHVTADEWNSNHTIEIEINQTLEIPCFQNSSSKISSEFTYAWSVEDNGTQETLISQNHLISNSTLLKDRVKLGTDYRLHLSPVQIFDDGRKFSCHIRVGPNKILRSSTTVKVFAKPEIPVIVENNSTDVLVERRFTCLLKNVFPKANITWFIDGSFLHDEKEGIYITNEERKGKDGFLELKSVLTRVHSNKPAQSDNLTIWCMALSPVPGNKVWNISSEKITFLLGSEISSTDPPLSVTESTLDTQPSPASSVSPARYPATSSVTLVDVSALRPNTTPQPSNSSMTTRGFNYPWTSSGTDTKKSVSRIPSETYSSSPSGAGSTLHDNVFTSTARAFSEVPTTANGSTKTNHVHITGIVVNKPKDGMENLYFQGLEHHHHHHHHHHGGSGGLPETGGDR

T2: wild type full-length human CD96 isoform 2 expressed on CHO cells (human, UniProt P40200-2 22-569)
T2 construct: whole, on cells; also called human CD96-CHO (isoform 2); human CD96 (iso2) CHO cells
T2 sequence (looked up): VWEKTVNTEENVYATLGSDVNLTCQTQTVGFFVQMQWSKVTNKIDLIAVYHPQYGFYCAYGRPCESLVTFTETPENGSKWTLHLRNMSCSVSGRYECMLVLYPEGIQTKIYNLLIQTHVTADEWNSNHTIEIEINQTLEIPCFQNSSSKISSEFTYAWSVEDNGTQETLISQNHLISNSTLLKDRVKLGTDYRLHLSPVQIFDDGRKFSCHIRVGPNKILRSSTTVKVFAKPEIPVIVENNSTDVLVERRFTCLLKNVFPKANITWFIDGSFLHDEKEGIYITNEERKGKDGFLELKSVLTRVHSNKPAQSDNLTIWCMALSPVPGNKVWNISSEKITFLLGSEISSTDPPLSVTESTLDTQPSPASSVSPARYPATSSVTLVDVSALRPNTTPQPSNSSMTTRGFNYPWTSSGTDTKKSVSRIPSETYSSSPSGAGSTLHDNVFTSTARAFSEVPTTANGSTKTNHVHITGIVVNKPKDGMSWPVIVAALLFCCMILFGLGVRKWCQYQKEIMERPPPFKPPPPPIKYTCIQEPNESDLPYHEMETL


Columns and labels:
[1] = molecular target: T1, full-length isoform 2 ECD of human CD96 …; assay: SPR Biacore T200, Protein A capture, 1:1 model, experiment #1
Procedure: Briefly, surface plasmon resonance experiments were performed using a Biacore T200 instrument, and the association rate (kₐ), dissociation rate (kd), and dissociation constant (KD) were calculated from each experiment using a 1:1 binding model with Biacore T200 Evaluation Software.
Multispecific molecules were captured using a 30-sec injection at a flow rate of 10 μl/min to reach about 350 resonance units (RUs). […] The sensor chip was regenerated between cycles with two 30-sec injections of 10 mM glycine, pH 1.5. Sensorgrams were evaluated and fit to a simple Langmuir 1:1 interaction model using the global data analysis option of BIAevaluation 3.0 software. Data quality was verified by visually inspecting deviations and curve fitting, and by evaluating the parameters of Rₘₐₓ, Chi2, and Tc.

[2] = molecular target: T3, full-length human FcγRIIIa variant V/V expressed on CHO cells (human, UniProt P08637 17-254); assay: flow cytometry, human FcγRIIIa (V/V) CHO cells, geomean of 2 experiments
T3 construct: whole, on cells; also called human FcγRIIIa-CHO (variant V/V); human FcγRIIIa (V/V) CHO cells
T3 sequence (P08637 other isoform, or with tags, fused parts or gaps mutant limits assumed): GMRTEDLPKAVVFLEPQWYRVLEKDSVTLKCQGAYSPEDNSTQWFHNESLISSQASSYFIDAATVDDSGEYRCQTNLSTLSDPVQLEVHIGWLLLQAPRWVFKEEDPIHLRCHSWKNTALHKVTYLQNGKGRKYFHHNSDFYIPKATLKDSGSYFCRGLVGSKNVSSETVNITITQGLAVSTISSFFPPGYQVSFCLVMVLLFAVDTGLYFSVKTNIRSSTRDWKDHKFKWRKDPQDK
Procedure: (§1) The ability of anti-TIGIT×CD96 multispecific molecules to bind to variant V/V or variant F/F of human FcγRIIIa expressed on the surface of CHO cells was assessed. Briefly, CHO cells were transfected with a vector encoding full-length human FcγRIIIa (human FcγRIIIa-CHO) variant V/V or F/F, and clones stably expressing FcγRIIIa (variant V/V or variant F/F) were selected.
(§2) For the antibody binding assay, a frozen aliquot of human FcγRIIIa-CHO (variant V/V or variant F/F) cells was thawed at 37° C. and then transferred to a tube containing DPBS supplemented with 0.5% Bovine Serum Albumin and 0.05% Sodium Azide (FACS Buffer). Cells were centrifuged at 300 g for five minutes. The supernatant was discarded, and cells resuspended in FACS buffer were seeded in a 96-well U-bottom tissue culture plate at a density of 2×10⁵ cells per well in 50 μL. In a separate microplate, a 2× concentrated intermediate stock of each multispecific molecule was prepared. […] After a 30-minute incubation on ice, the cells were washed twice with cold FACS Buffer, and the cells were analyzed by flow cytometry (BD LSR Fortessa Flow Cytometer). The data were analyzed using the FlowJo software by sequentially gating the FSC-A vs. SSC-A, and SSC-H vs. SSC-A. Mean fluorescence intensity (MFI) values for PE were calculated, and the data were plotted by GraphPad Prism software.

[3] = molecular target: T3, full-length human FcγRIIIa variant V/V …; assay: flow cytometry on CHO cells expressing human FcγRIIIa variant V/V, PE anti-human IgG Fc detection
Procedure: as §1, §2

[4] = molecular target: T2, wild type full-length human CD96 …; assay: flow cytometry, blocking of CD155-Fc-PE binding to human CD96 (isoform 2) CHO cells, geomean of 3 experiments
Procedure: A 4× concentrated intermediate stock of each multispecific molecule was prepared in a microplate. Antibodies were serially diluted 1-to-3 in FACS buffer. […] Lastly, 25 μL of wild type human CD96-CHO cells (isoform 2), prepared as described above, were added to each well. After a 30-minute incubation on ice, the cells were washed twice with cold FACS Buffer, and the cells were analyzed by flow cytometry (BD LSR Fortessa Flow Cytometer). The data were analyzed using the FlowJo software by sequentially gating on the FSC-A vs. SSC-A and SSC-H vs. SSC-A. Mean fluorescence intensity (MFI) values for PE were calculated, and the data were plotted by GraphPad Prism software and analyzed as described above.

Row | Binder | Kd [1] [nM] | koff [1] [s⁻¹] | kon [1] [M⁻¹ s⁻¹] | EC50 [2] [µg/mL] | EC50 (read off the curve) [3] [µg/mL] | IC50 [4] [µg/mL]
1 | anti-TIGIT×CD96 multispecific molecule BA123 (bispecific antibody, human IgG1, kappa, lambda, copies: 1 + 1 + 1 + 1) heavy 1: QVQLVQSGAEVKKPGASVKVSCKASGYTFTSYGISWVRQAPGQGLEWMGWISAYNANTNYAQKLQGRVTMTTDTSTSTAYMELRSLRSDDTAVYYCARSAGVLGGMDVWGRGTLVTVSSASTKGPSVFPLAPSSKSTSGGTAALGCLVKDYFPEPVTVSWNSGALTSGVHTFPAVLQSSGLYSLSSVVTVPSSSLGTQTYICNVNHKPSNTKVDKRVEPKSCDKTHTCPPCPAPELLGGPDVFLFPPKPKDTLMISRTPEVTCVVVDVSHEDPEVKFNWYVDGVEVHNAKTKPREEQYNSTYRVVSVLTVLHQDWLNGKEYKCKVSNKALPAPIEKTISKAKGQPREPQVYTLPPSREEMTKNQVSLSCAVKGFYPSDIAVEWESNGQPENNYKTTPPVLDSDGSFFLVSKLTVDKSRWQQGNVFSCSVMHEALHNHYTQKSLSLSPG light 1: not shown heavy 2: EVQLVQSGAEVKKPGSSVKVSCKASGYTFASYGISWVRQAPGQGLEWMGGITPFFNRVDVAEKFQGRVTITADKSTSTAYIELSSLRSEDTAVYYCARDLRRGGVGDAFDIWGRGTLVTVSSASTKGPSVFPLAPSSKSTSGGTAALGCLVKDYFPEPVTVSWNSGALTSGVHTFPAVLQSSGLYSLSSVVTVPSSSLGTQTYICNVNHKPSNTKVDKRVEPKSCDKTHTCPPCPAPELLGGPDVFLFPPKPKDTLMISRTPEVTCVVVDVSHEDPEVKFNWYVDGVEVHNAKTKPREEQYNSTYRVVSVLTVLHQDWLNGKEYKCKVSNKALPLPEEKTISKAKGQPREPQVYTLPPSREEMTKNQVSLWCLVKGFYPSDIAVEWESNGQPENNYKTTPPVLDSDGSFFLYSKLTVDKSRWQQGNVFSCSVMHEALHNHYTQKSLSLSPG light 2: QSALTQPRSVSGSPGQSVTISCTGTSPDVGSHAYRSWYQQHPGKAPKLMIYEVSYRPSGVSNRFSGSKSGNTASLTISGLQAEDEADYYCSSYPPSSATVFGAGTKLTVLGQPKAAPSVTLFPPSSEELQANKATLVCLISDFYPGAVTVAWKADSSPVKAGVETTTPSKQSNNKYAASSYLSLTPEQWKSHRSYSCQVTHEGSTVEKTVAPTEC | 79 | 0.00125 | 15800 | 0.189 | ~0.3 | 5.63
2 | anti-TIGIT×CD96 multispecific molecule BA127 (bispecific antibody, human IgG1, kappa, lambda, Anti-CD96 arm = BA139, anti-TIGIT arm = BA150; copies: 1 + 1 + 1 + 1) heavy 1: QVQLVQSGAEVKKPGASVKVSCKASGYTFTTYALHWVRQAPGQRLEWMGWINTGSGDTKYSQKFQGRVTITRDTSASTAYMELSSLRSEDTAVYYCARSLGVYYGMDVWGQGTLVTVSSASTKGPSVFPLAPSSKSTSGGTAALGCLVKDYFPEPVTVSWNSGALTSGVHTFPAVLQSSGLYSLSSVVTVPSSSLGTQTYICNVNHKPSNTKVDKRVEPKSCDKTHTCPPCPAPELLGGPDVFLFPPKPKDTLMISRTPEVTCVVVDVSHEDPEVKFNWYVDGVEVHNAKTKPREEQYNSTYRVVSVLTVLHQDWLNGKEYKCKVSNKALPAPIEKTISKAKGQPREPQVYTLPPSREEMTKNQVSLSCAVKGFYPSDIAVEWESNGQPENNYKTTPPVLDSDGSFFLVSKLTVDKSRWQQGNVFSCSVMHEALHNHYTQKSLSLSPG light 1: not shown heavy 2: EVQLVQSGAEVKKPGSSVKVSCKASGYTFASYGISWVRQAPGQGLEWMGGITPFFNRVDVAEKFQGRVTITADKSTSTAYIELSSLRSEDTAVYYCARDLRRGGVGDAFDIWGRGTLVTVSSASTKGPSVFPLAPSSKSTSGGTAALGCLVKDYFPEPVTVSWNSGALTSGVHTFPAVLQSSGLYSLSSVVTVPSSSLGTQTYICNVNHKPSNTKVDKRVEPKSCDKTHTCPPCPAPELLGGPDVFLFPPKPKDTLMISRTPEVTCVVVDVSHEDPEVKFNWYVDGVEVHNAKTKPREEQYNSTYRVVSVLTVLHQDWLNGKEYKCKVSNKALPLPEEKTISKAKGQPREPQVYTLPPSREEMTKNQVSLWCLVKGFYPSDIAVEWESNGQPENNYKTTPPVLDSDGSFFLYSKLTVDKSRWQQGNVFSCSVMHEALHNHYTQKSLSLSPG light 2: QSALTQPRSVSGSPGQSVTISCTGTSPDVGSHAYRSWYQQHPGKAPKLMIYEVSYRPSGVSNRFSGSKSGNTASLTISGLQAEDEADYYCSSYPPSSATVFGAGTKLTVLGQPKAAPSVTLFPPSSEELQANKATLVCLISDFYPGAVTVAWKADSSPVKAGVETTTPSKQSNNKYAASSYLSLTPEQWKSHRSYSCQVTHEGSTVEKTVAPTEC | 19.6 | 0.00116 | 59200 | 0.148 | ~0.2 | 1.99
